{"source": "paper PMC4118443", "about": "(2014)", "biological_target": "T1, NS5A 347-361 (Hepatitis C virus, UniProt P26664)", "T1 chain": "PKSPPVPPPRKKRTV", "assay": "fluorescence titration", "data": [{"binder": "Bin1 SH3 (protein) LPPGFMFKVQAQHDYTATDTDELQLKAGDVVLVIPFQNPEEQDEGWLMGVKESDWNQHKELEKCRGVFPENFTERVP", "values": [{"measurement": "Kd", "result": 200, "unit": "nM"}]}]}
